Experimental data as given in patent publication US8349318B2, “Use of specifically engineered enzymes to enhance the efficacy of prodrugs” (The Board of Trustees of the University of Illinois, priority 2008, dated 2013).

Tests used:
A100V/R104M/D133A-dCK = target: T1, A100V/R104M/D133A-dCK (Homo sapiens, UniProt P27707, A100V/D133A/R104M); assay: Steady-state kinetic assay of nucleoside phosphorylation by A100V/R104M/D133A-dCK; type: biochemical
T1 construct: His-tag (N); made in house

parent 293 cells = assay: Proliferation of parental 293 cells treated with nucleoside analogs; type: cell-based, human
Procedure: Next, whether the dCK-S74E/R104M/D133A variant could inhibit cell growth in the presence of NAs including BVdU was tested. Human 293 cells were stably transfected with a recombinant expression construct encoding the dCK-S74E/R104M/D133A protein. The proliferative capacity of the stably transfected cell line was compared to the parental 293 cells after treating the cells with several nucleoside analogs such as AraC, gemcitabine, and BVdU. Since some of the nucleosides were first dissolved in the solvent DMSO, equal amounts of DMSO were used as control.

Wild Type dCK = Wild Type dCK (Homo sapiens, UniProt P27707); assay: Steady-state kinetic (colorimetric, enzyme-coupled) assay of nucleoside phosphorylation by wild type dCK
[1] = Kinetic characterization of dCK variants, substrate gemcitabine; type: biochemical; details: for kobs Gem: nucleoside concentration of 200 μM, ATP 1 mM; for rate of phosphorylation, Gem: Table 8, nucleoside 200 mM, ATP 1 μM [sic]; for Rel kobs (Gem): relative to WT
[2] = Kinetic characterization of dCK variants, substrate D-dA; type: biochemical; details: for kobs D-dA: nucleoside concentration of 200 μM, ATP 1 mM; for Rel kobs (D-dA): relative to WT
[3] = Kinetic characterization of dCK variants, substrate D-dG; type: biochemical; details: for kobs D-dG: nucleoside concentration of 200 μM, ATP 1 mM; for rate of phosphorylation, D-dG: Table 8, nucleoside 200 mM, ATP 1 μM [sic]; for Rel kobs (D-dG): relative to WT
[4] = Kinetic characterization of dCK variants, substrate D-dC; type: biochemical; details: for kobs D-dC: nucleoside concentration of 200 μM, ATP 1 mM; for rate of phosphorylation, D-dC: Table 8, nucleoside 200 mM, ATP 1 μM [sic]; for Rel kobs (D-dC): relative to WT
[5] = Kinetic characterization of dCK variants, substrate D-dT; type: biochemical; details: for kobs D-dT: nucleoside concentration of 200 μM, ATP 1 mM; for rate of phosphorylation, D-dT: Table 8, nucleoside 200 mM, ATP 1 μM [sic]; for Rel kobs (D-dT): relative to WT
[6] = Kinetic characterization of dCK variants, substrate AraC; type: biochemical; details: for kobs AraC: nucleoside concentration of 200 μM, ATP 1 mM; for Rel kobs (AraC): relative to WT
[7] = Kinetic characterization of dCK variants, substrate L-dT; type: biochemical; details: for kobs L-dT: nucleoside concentration of 200 μM, ATP 1 mM; for rate of phosphorylation, L-dT: Table 8, nucleoside 200 mM, ATP 1 μM [sic]; for Rel kobs (L-dT): relative to WT
[8] = Kinetic analysis of dCK variants, substrate L-dU; type: biochemical; details: Table 8; nucleoside 200 mM, ATP 1 μM [sic]
Procedure: In a separate experiment, those mutant dCKs were analyzed in the presence of a nucleoside substrate at a concentration of 200 mM, and a phosphoryl donor ATP at a concentration of 1 μM.

SKBR-3 = assay: MTS cytotoxicity assay in breast cancer-derived cell line; type: cell-based, human; details: SKBR-3, 96 hours
Procedure: The cells were then exposed to varying amount of BVdU for 96 hours. […] Cell viability was measured using the MTS cytotoxicity assay according to the manufacturer's instructions (Promega). […] MTS was reduced by cellular dehydrogenase into formazan, which is soluble in tissue culture medium. […] Since the production of formazan is proportional to the number of living cells, the intensity of the produced color is a good indication of the viability of the cells.

[9] = Iyidogan, et al., 2008; read-out: Km for D-dT; cited from earlier work
[10] = Wild Type dCK, 0.4 μM dCK, 1 mM ATP.Mg, 37° C.

Compound	kobs Gem [1] [s⁻¹]	kobs D-dA [2] [s⁻¹]	kobs D-dG [3] [s⁻¹]	kobs D-dC [4]	kobs D-dT [5]	kobs AraC [6]	kobs L-dT [7] [s⁻¹]	rate of phosphorylation, Gem [1] [s⁻¹]	Rel kobs (Gem) [1]	Rel kobs (D-dA) [2]	rate of phosphorylation, D-dG [3] [s⁻¹]	Rel kobs (D-dG) [3]	rate of phosphorylation, D-dC [4] [s⁻¹]	Rel kobs (D-dC) [4]	rate of phosphorylation, D-dT [5] [s⁻¹]	Rel kobs (D-dT) [5]	Rel kobs (AraC) [6]	rate of phosphorylation, L-dT [7] [s⁻¹]	Rel kobs (L-dT) [7]	other results
Nc1ccn([C@@H]2O[C@H](CO)[C@@H](O)C2(F)F)c(=O)n1 [gemcitabine, 2′,2′-difluorodeoxycytidine]																				Km (A100V/R104M/D133A-dCK): 50 µM; kcat (A100V/R104M/D133A-dCK): 3.52 s⁻¹; inhibition at 1 µM (parent 293 cells; Homo sapiens, HEK293, 1 μM, read-out: inhibition of growth): 75%; Km (Wild Type dCK; [10]): 22 µM; kcat (Wild Type dCK; [10]): 0.37 s⁻¹; higher enzymatic efficiency compared to dC (Wild Type dCK; wild type dCK): ~4 fold; increase in kcat compared to dC (Wild Type dCK; wild type dCK): 10 fold
R104K/D133A: human dCK mutant, lysine at position 104, D133A	<0.005	<0.005	<0.005	<0.005 s⁻¹	<0.005 s⁻¹	<0.005 s⁻¹	<0.005													
R104I/D133A: modified human dCK, isoleucine at position 104, alanine at position 133, SEQ ID NO:12	0.21 ± 0.08	0.21 ± 0.01	0.08 ± 0.01	0.06 ± 0.01 s⁻¹	0.40 ± 0.01 s⁻¹	0.07 ± 0.01 s⁻¹	0.19 ± 0.02	0.21	0.53	0.18	0.08	0.08	0.06	2	0.4	50	0.25	0.19	10	rate of phosphorylation, L-dU [8]: 0.4 s⁻¹
R104V/D133A: human dCK mutant, valine at position 104, D133A	<0.005	<0.005	<0.005	<0.005 s⁻¹	<0.005 s⁻¹	<0.005 s⁻¹	<0.005				0.03		0.03		0.04			0.05		
R104F/D133A: human dCK mutant, phenylalanine at position 104, D133A	<0.005	<0.005	<0.005	<0.005 s⁻¹	<0.005 s⁻¹	<0.005 s⁻¹	<0.005				0.02		0.02		0.02			0.02		
R104Q/D133A: modified human dCK, glutamine at position 104, alanine at position 133, SEQ ID NO:8	0.17 ± 0.04	0.18 ± 0.04	0.06 ± 0.01	0.08 ± 0.01 s⁻¹	0.10 ± 0.06 s⁻¹	0.18 ± 0.01 s⁻¹	0.15 ± 0.02	0.17	0.43	0.15	0.06	0.06	0.08	2.7	0.1	12.5	0.60	0.15	9	rate of phosphorylation, L-dU [8]: 0.14 s⁻¹
O=c1[nH]c(=O)n([C@H]2C[C@H](O)[C@@H](CO)O2)cc1/C=C/Br [BVdU, (E)-5-(2-bromovinyl)-2′-deoxyuridine]																				effect on cell viability / proliferation (SKBR-3): no detrimental effect; inhibition of growth (parent 293 cells; highest tested concentration of 50 μM): did not inhibit the growth
WT: wild type human deoxycytidine kinase, SEQ ID NO:1 [reference compound]	0.39 ± 0.01	1.19 ± 0.01	0.94 ± 0.18	0.03 ± 0.01^b sec^−1	0.008 ± 0.001^b sec^−1	0.30 ± 0.04^b sec^−1	0.017 ± 0.023	0.39	1.00	1	0.94	1	0.03	1		1	1.00		1	Km [9]: > 3000 µM
